The values that follow come from patent publication EP4703388A1 (Jiangsu Hengrui Pharmaceuticals Co., Ltd., dated 2024).

In assay [1] the target is T1, cyno TF ECD-His (cTF-his) (monkey (cyno)).
T1 construct: also called bio-cTF-his; monkey TF-His protein
T1 chain: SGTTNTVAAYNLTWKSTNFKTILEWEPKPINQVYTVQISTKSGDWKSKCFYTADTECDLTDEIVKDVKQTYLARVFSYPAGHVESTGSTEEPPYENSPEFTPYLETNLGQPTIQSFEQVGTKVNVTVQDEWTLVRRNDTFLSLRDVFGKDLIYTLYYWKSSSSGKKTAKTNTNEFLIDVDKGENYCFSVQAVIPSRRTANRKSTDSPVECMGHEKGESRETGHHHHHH
Kind of assay: SPR Biacore T200, antibody on Protein A chip, TF-His as analyte, 1:1 model.

The target in assay [2] is T2, human TF ECD-His (hTF-his) (human, UniProt P13726 33-251).
T2 construct: also called bio-hTF-his; human TF-His protein
Described as above.

B1: hu67-1 (antibody, human IgG1, kappa, V domains shown)
VH: EVTLKQSGPVLVKPTQTLTLTCTVSGFSLTNYGVNWIRQPPRKALEWLAVIWSRGNTDYNAAFISRLTISKDTSKSQVVLKMTNMDPVDTATYYCARKDAVVATDALDYWGQGTTVTVSS
VL: DIVMTQSPKSLAVSLGERATINCKASQDVSTAVAWYQQKPGQPPKLLIYSTSYRYTGVPDRFSGSGSGTDFTLTISSLQAEDVAVYYCQQHYSTPYTFGGGTKVEIKR
In the case of B1, in assay [1], the Kd (commonly a measure of binding affinity in units of concentration) was determined as 14.8 nM; the off-rate (koff) (commonly the rate constant with which the complex falls apart) worked out at 0.000358 s⁻¹; the kon (in general, the rate constant with which the complex forms) was determined as 24100 M⁻¹ s⁻¹. In assay [2], this molecule displayed a Kd of 13.6 nM, a koff of 0.000585 s⁻¹ and a kon of 42900 M⁻¹ s⁻¹.

B2: hu67-6 (antibody, human IgG1, kappa, V domains shown)
VH: EVTLKQSGPVLVKPTQTLTLTCTVSGFSLTNYGVNWIRQPPRKGLEWLGVIWSRGNTDYNAAFISRLTISKDNSKSQVVLKMTNMDPVDTATYYCARKDAVVATDALDYWGQGTTVTVSS
VL: DIVMTQSPKSLAVSLGERATINCKASQDVSTAVAWYQQKPGQSPKLLIYSTSYRYTGVPDRFSGSGSGTDFTFTISSLQAEDVAVYYCQQHYSTPYTFGGGTKVEIKR
In assay [1], B2 returned a Kd of 14.3 nM, a koff of 0.000428 s⁻¹ and a kon of 29900 M⁻¹ s⁻¹. Besides, in assay [2], the Kd was determined as 21.7 nM, the koff stood at 0.000652 s⁻¹ and the kon stood at 30000 M⁻¹ s⁻¹.

B3: hu67-2 (antibody, human IgG1, kappa, V domains shown)
VH: EVTLKQSGPVLVKPTQTLTLTCTVSGFSLTNYGVNWIRQPPRKGLEWLGVIWSRGNTDYNAAFISRLTISKDNSKSQVVLKMTNMDPVDTATYYCARKDAVVATDALDYWGQGTTVTVSS
VL: DIVMTQSPKSLAVSLGERATINCKASQDVSTAVAWYQQKPGQPPKLLIYSTSYRYTGVPDRFSGSGSGTDFTLTISSLQAEDVAVYYCQQHYSTPYTFGGGTKVEIKR
As for B3, in assay [1], the Kd came to 12.7 nM, the koff was 0.000429 s⁻¹ and the kon came out at 33700 M⁻¹ s⁻¹. In assay [2], this molecule came in with a Kd of 15.8 nM, a koff of 0.000673 s⁻¹ and a kon of 42600 M⁻¹ s⁻¹.

B4: hu67-5 (antibody, human IgG1, kappa, V domains shown)
VH: EVTLKQSGPVLVKPTQTLTLTCTVSGFSLTNYGVNWIRQPPRKALEWLAVIWSRGNTDYNAAFISRLTISKDTSKSQVVLKMTNMDPVDTATYYCARKDAVVATDALDYWGQGTTVTVSS
VL: DIVMTQSPKSLAVSLGERATINCKASQDVSTAVAWYQQKPGQSPKLLIYSTSYRYTGVPDRFSGSGSGTDFTFTISSLQAEDVAVYYCQQHYSTPYTFGGGTKVEIKR
Regarding B4, in assay [1], the Kd turned out to be 15.1 nM, the koff worked out at 0.00039 s⁻¹ and the kon was 25800 M⁻¹ s⁻¹. Moreover, in assay [2], binding was characterised by a dissociation constant (Kd) of 17.7 nM, the koff was found to be 0.000582 s⁻¹ and the kon amounted to 32800 M⁻¹ s⁻¹.

B5: hu67-12 (antibody, human IgG1, kappa, V domains shown)
VH: EVQLQESGPGLVKPSQTLSLTCTVSGFSLTNYGVNWIRQPPRKGLEWIGVIWSRGNTDYNAAFISRVTISKDNSKSQVSLKLSSVTAADTAVYYCARKDAVVATDALDYWGQGTTVTVSS
VL: DIQMTQSPSSLSASVGDRVTITCKASQDVSTAVAWYQQKPGKAPKLLIYSTSYRYTGVPSRFSGSGSGTDFTFTISSLQPEDIATYYCQQHYSTPYTFGGGTKVEIKR
On to B5, for which, in assay [1], the Kd was determined as 14 nM, the off-rate constant (koff) is 0.000468 s⁻¹ and the kon was found to be 33400 M⁻¹ s⁻¹. Further, in assay [2], the Kd was found to be 18.7 nM, the koff is 0.000731 s⁻¹ and the kon came out at 39200 M⁻¹ s⁻¹.

B6: hu67-3 (antibody, human IgG1, kappa, V domains shown)
VH: EVQLQESGPGLVKPSQTLSLTCTVSGFSLTNYGVNWIRQPPGKGLEWIGVIWSRGNTDYNAAFISRVTISKDTSKNQVSLKLSSVTAADTAVYYCARKDAVVATDALDYWGQGTTVTVSS
VL: DIVMTQSPKSLAVSLGERATINCKASQDVSTAVAWYQQKPGQPPKLLIYSTSYRYTGVPDRFSGSGSGTDFTLTISSLQAEDVAVYYCQQHYSTPYTFGGGTKVEIKR
In assay [1], B6 had a dissociation constant (Kd) of 13.5 nM, a koff of 0.000431 s⁻¹ and a kon of 31900 M⁻¹ s⁻¹. In assay [2], this molecule came in with a Kd of 14.2 nM, a koff of 0.000663 s⁻¹ and a kon of 46600 M⁻¹ s⁻¹.

B7: hu67-9 (antibody, human IgG1, kappa, V domains shown)
VH: EVTLKQSGPVLVKPTQTLTLTCTVSGFSLTNYGVNWIRQPPRKALEWLAVIWSRGNTDYNAAFISRLTISKDTSKSQVVLKMTNMDPVDTATYYCARKDAVVATDALDYWGQGTTVTVSS
VL: DIQMTQSPSSLSASVGDRVTITCKASQDVSTAVAWYQQKPGKAPKLLIYSTSYRYTGVPSRFSGSGSGTDFTFTISSLQPEDIATYYCQQHYSTPYTFGGGTKVEIKR
As to B7, in assay [1], the Kd stood at 10.8 nM, the koff came to 0.000351 s⁻¹ and the kon was 32400 M⁻¹ s⁻¹. In assay [2], this molecule had a Kd of 16.4 nM, a koff of 0.000564 s⁻¹ and a kon of 34500 M⁻¹ s⁻¹.

B8: hu67-15 (antibody, human IgG1, kappa, V domains shown)
VH: EVQLQESGPGLVKPSQTLSLTCTVSGFSLTNYGVNWIRQPPGKGLEWIGVIWSRGNTDYNAAFISRVTISKDTSKNQVSLKLSSVTAADTAVYYCARKDAVVATDALDYWGQGTTVTVSS
VL: DIQMTQSHKFLSASVGDRVTITCKASQDVSTAVAWYQQKPGKSPKLLIYSTSYRYTGVPSRFSGSGSGTDFTFTISSLQPEDIATYYCQQHYSTPYTFGGGTKVEIKR
In assay [1], B8 showed a Kd of 13.4 nM, a koff of 0.000419 s⁻¹ and a kon of 31200 M⁻¹ s⁻¹. In assay [2], this molecule returned a Kd of 19.1 nM, a koff of 0.000638 s⁻¹ and a kon of 33400 M⁻¹ s⁻¹.

B9: hu67-7 (antibody, human IgG1, kappa, V domains shown)
VH: EVQLQESGPGLVKPSQTLSLTCTVSGFSLTNYGVNWIRQPPGKGLEWIGVIWSRGNTDYNAAFISRVTISKDTSKNQVSLKLSSVTAADTAVYYCARKDAVVATDALDYWGQGTTVTVSS
VL: DIVMTQSPKSLAVSLGERATINCKASQDVSTAVAWYQQKPGQSPKLLIYSTSYRYTGVPDRFSGSGSGTDFTFTISSLQAEDVAVYYCQQHYSTPYTFGGGTKVEIKR
In assay [1], B9 returned a dissociation constant (Kd) of 10.5 nM, a koff of 0.00036 s⁻¹ and a kon of 34200 M⁻¹ s⁻¹. In assay [2], this molecule had a Kd of 14.3 nM, a koff of 0.000584 s⁻¹ and a kon of 40800 M⁻¹ s⁻¹.

B10: hu67-8 (antibody, human IgG1, kappa, V domains shown)
VH: EVQLQESGPGLVKPSQTLSLTCTVSGFSLTNYGVNWIRQPPRKGLEWIGVIWSRGNTDYNAAFISRVTISKDNSKSQVSLKLSSVTAADTAVYYCARKDAVVATDALDYWGQGTTVTVSS
VL: DIVMTQSPKSLAVSLGERATINCKASQDVSTAVAWYQQKPGQSPKLLIYSTSYRYTGVPDRFSGSGSGTDFTFTISSLQAEDVAVYYCQQHYSTPYTFGGGTKVEIKR
As for B10, in assay [1], binding was put at a Kd of 13.7 nM, the koff is 0.000446 s⁻¹ and the kon stood at 32500 M⁻¹ s⁻¹. In assay [2], the Kd was determined as 17.1 nM, the koff was 0.000668 s⁻¹ and the kon came out at 39000 M⁻¹ s⁻¹.

B11: hu67-16 (antibody, human IgG1, kappa, V domains shown)
VH: EVQLQESGPGLVKPSQTLSLTCTVSGFSLTNYGVNWIRQPPRKGLEWIGVIWSRGNTDYNAAFISRVTISKDNSKSQVSLKLSSVTAADTAVYYCARKDAVVATDALDYWGQGTTVTVSS
VL: DIQMTQSHKFLSASVGDRVTITCKASQDVSTAVAWYQQKPGKSPKLLIYSTSYRYTGVPSRFSGSGSGTDFTFTISSLQPEDIATYYCQQHYSTPYTFGGGTKVEIKR
In assay [1], B11 yielded a Kd of 14.8 nM, a koff of 0.000478 s⁻¹ and a kon of 32200 M⁻¹ s⁻¹. In assay [2], this molecule yielded a Kd of 19.2 nM, a koff of 0.000702 s⁻¹ and a kon of 36500 M⁻¹ s⁻¹.
